B1: NETO1 (parent)
chain: GFSPIIGRFCGQQNPPVIKSSGRF

Variants of: B1
Experiment: protein stability index of a GFP-peptide fusion (GPS, HEK-293T) (PSI 1-6); higher = more stable
Conditions: c terminus: a fixed tail appended
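Also: lentivirally expressed fusions sorted by FACS into six bins by GFP to DsRed ratio, PSI derived from sequencing read proportions per bin multiplied by bin number.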

Protein stability index: each site, then its substitutions
R8: M 1.76; G 2.16; Y 1.83; T 2.18; A 2.72; N 2.04; C 1.61; D 2.63; W 1.93; E 3.19; S 2.05; H 1.79; F 1.62; V 2.23; K 2.19; I 2.43; L 1.83; P 2.61; Q 2.19
C10: S 2.9; A 3.07; E 3.76; H 2.38; Q 2.4; P 3.47; G 3.05; L 2.79; R 2.63; N 3.13; F 2.51; M 2.27; Y 2.42; D 2.71; V 2.46; W 2.3; T 3.29; I 2.86; K 2.93
I5: L 2.17; C 2.12; N 2.34; G 2.31; R 2.79; H 2.59; K 2.75; D 2.92; P 2.79; Y 2.36; M 2.19; F 1.79; T 2.36; Q 2.52; W 1.42; V 1.87; S 2.62; E 3.22; A 2.05
Q12: L 1.75; G 2.26; H 2.3; T 2.26; E 2.35; R 1.78; Y 2.01; V 2.15; S 2.03; C 2.32; W 1.72; D 2.53; N 2.35; I 2.16; M 1.94; P 2.75; F 1.8; A 1.57; K 2.33
G11: C 1.6; Q 2.38; W 2.26; Y 1.89; F 2.03; A 2.01; E 2.54; H 1.91; D 2.76; R 1.63; L 2.31; P 2.58; M 1.51; S 2.38; K 1.91; N 2.17; I 1.83; T 2.58; V 2.36
F9: P 1.95; K 2.49; S 1.98; T 1.75; R 2.07; A 2.87; H 1.69; G 1.97; E 3.73; Y 1.98; M 2.17; L 2.49; W 2.27; D 3.31; C 2.06; I 2.45; Q 2.38; N 2.42; V 2.66
Q13: A 1.83; C 1.42; E 2.22; D 1.96
I6: H 2.77; Y 1.91; R 3.09; C 2.11; S 2.94; Q 2.38; K 3.17; A 2.1; E 3.28; F 2.16; D 3.54; M 2.05; L 2.55; V 2.15; W 2.68; N 2.37; T 2.39; P 2.95; G 2.58
P4: T 1.26; S 1.99; Q 1.91; Y 2.44; G 1.74; W 1.91; F 2.09; K 2.59; H 2.05; R 1.82; M 2.36; V 1.87; N 1.69
G7: R 2.25; P 1.65; V 1.83; W 1.42; S 2.3; T 2.47; L 1.85; D 2.66; E 2.39; F 2.03; Y 1.64; K 1.89; H 1.74; A 1.73; M 1.56; I 2.88; N 2.38
